Test results taken from PMC9243104 (Nature Communications, 2022).

Legend:
WASp (WT*WASp) = WASp (WT*WASp) (Homo sapiens, UniProt P42768 1-502); assay: EMSA; WASp alone; EMSA: 1x Promega E358A gel shift binding buffer (composition not given), 25 ul, 10^5 CPM 32P probe, 10 min 4 C then 20 min room temperature, 6% native PAGE; details: protein: recombinant; tags: Flag; label: 32P (T4 PNK); single strand
RPA1 (RPA70) = RPA1 (RPA70) (Homo sapiens, UniProt P27694 1-616); assay: EMSA; + WASp; binding increased, maximum at equimolar 25 nM WASp; EMSA: 1x Promega E358A gel shift binding buffer (composition not given), 25 ul, 10^5 CPM 32P probe, 10 min 4 C then 20 min room temperature, 6% native PAGE; details: protein: commercial; label: 32P (T4 PNK); single strand
RPA1-FAB (DBD-F/A/B) = RPA1-FAB (DBD-F/A/B) (Homo sapiens, UniProt P27694 1-422); assay: EMSA; + WASp; binding increased; EMSA: 1x Promega E358A gel shift binding buffer (composition not given), 25 ul, 10^5 CPM 32P probe, 10 min 4 C then 20 min room temperature, 6% native PAGE; details: protein: recombinant; label: 32P (T4 PNK); single strand
[1] = molecular target: RPA heterotrimer (RPA1-3) (Homo sapiens, UniProt P27694;P15927;P35244 1-616;1-270;1-121); assay: as above; details: protein: recombinant; copies: 1;1;1; label: 32P (T4 PNK); single strand
RPA1-AB (DBD-A/B) = RPA1-AB (DBD-A/B) (Homo sapiens, UniProt P27694 181-422); assay: as above; details: protein: recombinant; label: 32P (T4 PNK); single strand
[2] = molecular target: the molecule itself; assay: ELISA; 1 µg of 1st protein coated on a 96-well plate (1 h, 25 °C), blocked with 5% milk in PBS; 2nd protein added at increasing concentrations in blocking buffer (1 h, 25 °C); detected with anti-WASp antibody, OD450; RPA coated alone or after pre-incubation with 1 nM ssDNA

Sequence of RPA heterotrimer (RPA1-3) (P27694 whole entry, chain 1 of 3): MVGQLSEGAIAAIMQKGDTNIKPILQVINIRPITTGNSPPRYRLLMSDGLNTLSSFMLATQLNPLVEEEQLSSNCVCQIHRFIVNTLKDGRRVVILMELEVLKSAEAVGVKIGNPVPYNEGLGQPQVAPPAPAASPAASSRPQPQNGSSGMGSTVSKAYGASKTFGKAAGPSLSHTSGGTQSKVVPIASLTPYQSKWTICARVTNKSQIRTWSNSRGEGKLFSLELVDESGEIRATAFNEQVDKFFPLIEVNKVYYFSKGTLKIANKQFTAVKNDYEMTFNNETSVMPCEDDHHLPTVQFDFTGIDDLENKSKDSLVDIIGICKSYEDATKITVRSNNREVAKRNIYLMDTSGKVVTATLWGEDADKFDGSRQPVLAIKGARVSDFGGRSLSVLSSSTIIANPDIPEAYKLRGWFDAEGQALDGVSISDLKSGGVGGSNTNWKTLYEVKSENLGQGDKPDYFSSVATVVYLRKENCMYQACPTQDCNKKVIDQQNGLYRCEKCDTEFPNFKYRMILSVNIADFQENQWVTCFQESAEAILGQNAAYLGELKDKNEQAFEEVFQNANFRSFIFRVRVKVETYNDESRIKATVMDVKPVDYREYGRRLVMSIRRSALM
Sequence of RPA heterotrimer (RPA1-3) (P15927 whole entry, chain 2 of 3): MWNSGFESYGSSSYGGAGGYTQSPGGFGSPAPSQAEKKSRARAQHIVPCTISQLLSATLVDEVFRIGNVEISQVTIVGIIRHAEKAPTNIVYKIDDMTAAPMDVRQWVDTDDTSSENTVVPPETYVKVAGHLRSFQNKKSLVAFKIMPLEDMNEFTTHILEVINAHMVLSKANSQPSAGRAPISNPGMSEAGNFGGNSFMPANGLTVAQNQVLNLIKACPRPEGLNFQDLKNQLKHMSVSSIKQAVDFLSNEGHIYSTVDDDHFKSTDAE
Sequence of RPA heterotrimer (RPA1-3) (P35244 whole entry, chain 3 of 3): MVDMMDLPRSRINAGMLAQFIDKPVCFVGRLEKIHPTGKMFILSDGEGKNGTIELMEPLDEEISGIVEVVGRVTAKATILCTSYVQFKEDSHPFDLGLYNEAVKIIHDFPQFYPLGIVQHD
Sequence of RPA1 (RPA70) (P27694 whole entry): as the sequence (P27694 whole entry, chain 1 of 3) above
Sequence of RPA1-FAB (DBD-F/A/B) (P27694 1-422): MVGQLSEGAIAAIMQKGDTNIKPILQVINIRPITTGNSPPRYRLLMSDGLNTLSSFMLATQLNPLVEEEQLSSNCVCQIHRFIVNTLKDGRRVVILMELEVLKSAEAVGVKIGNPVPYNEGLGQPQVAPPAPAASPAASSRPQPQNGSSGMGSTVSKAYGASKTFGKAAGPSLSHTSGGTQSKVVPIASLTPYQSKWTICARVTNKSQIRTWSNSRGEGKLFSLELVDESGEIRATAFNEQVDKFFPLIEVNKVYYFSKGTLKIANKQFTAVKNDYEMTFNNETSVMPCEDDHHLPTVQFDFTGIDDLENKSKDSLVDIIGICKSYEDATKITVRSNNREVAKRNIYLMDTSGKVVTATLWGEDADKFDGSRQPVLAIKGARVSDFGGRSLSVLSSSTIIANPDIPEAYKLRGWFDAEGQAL
Sequence of RPA1-AB (DBD-A/B) (P27694 181-422): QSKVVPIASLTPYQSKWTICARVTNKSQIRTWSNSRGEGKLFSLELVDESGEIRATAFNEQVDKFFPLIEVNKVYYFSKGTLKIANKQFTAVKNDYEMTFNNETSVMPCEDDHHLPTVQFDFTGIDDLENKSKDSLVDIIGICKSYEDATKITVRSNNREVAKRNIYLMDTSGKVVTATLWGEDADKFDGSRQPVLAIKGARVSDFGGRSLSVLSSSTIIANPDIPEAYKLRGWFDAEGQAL

Binder	binding result (WASp (WT*WASp))	binding result [2]	further results
XO1 ssDNA 61-mer (ssDNA) DNA: GACGCTGCCGAATTCTACCAGTGCCTTGCTAGGACATCTTTGCCCACCTGCAGGTTCACCC	no binding	–	binding result (RPA1 (RPA70)): binds; binding result (RPA1-FAB (DBD-F/A/B)): binds; binding result [1]: binds; binding result (RPA1-AB (DBD-A/B)): binds
ssRNA 61-mer (ssRNA) RNA: GACGCUGCCGAAUUCUACCAGUGCCUUGCUAGGACAUCUUUGCCCACCUGCAGGUUCACCC	no binding	–	–
Recombinant human WT*WASp (Wiskott-Aldrich syndrome protein) (natural protein, UniProt P42768 1-502, looked up, human WASp, codon-optimized WAS gene cloned into the NdeI-HindIII site of pET30a; also called wild-type WASp; native purified human WASp; source: E. coli DE3 (pET30a-WT*WASp), purified using Flag-tag; commercially produced by GenScript) MSGGPMGGRPGGRGAPAVQQNIPSTLLQDHENQRLFEMLGRKCLTLATAVVQLYLALPPGAEHWTKEHCGAVCFVKDNPQKSYFIRLYGLQAGRLLWEQELYSQLVYSTPTPFFHTFAGDDCQAGLNFADEDEAQAFRALVQEKIQKRNQRQSGDRRQLPPPPTPANEERRGGLPPLPLHPGGDQGGPPVGPLSLGLATVDIQNPDITSSRYRGLPAPGPSPADKKRSGKKKISKADIGAPSGFKHVSHVGWDPQNGFDVNNLDPDLRSLFSRAGISEAQLTDAETSKLIYDFIEDQGGLEAVRQEMRRQEPLPPPPPPSRGGNQLPRPPIVGGNKGRSGPLPPVPLGIAPPPPTPRGPPPPGRGGPPPPPPPATGRSGPLPPPPPGAGGPPMPPPPPPPPPPPSSGNGPAPPPLPPALVPAGGLAPGGGRGALLDQIRQGIQLNKTPGAPESSALQPPPQSSEGLVGALMHVMQKRSRAIHSSDEGEDQAGDEDEDDEWDD	–	binds	–
Recombinant human ΔRBM1*WASp (WASp mutant lacking the RPA1-binding motif, aa 493-502) (natural protein, UniProt P42768 1-502, looked up, also called RBM1-deleted WASp mutant; source: E. coli DE3 (pET30a-∆RBM1*WASp), purified using Flag-tag; commercially produced by GenScript) MSGGPMGGRPGGRGAPAVQQNIPSTLLQDHENQRLFEMLGRKCLTLATAVVQLYLALPPGAEHWTKEHCGAVCFVKDNPQKSYFIRLYGLQAGRLLWEQELYSQLVYSTPTPFFHTFAGDDCQAGLNFADEDEAQAFRALVQEKIQKRNQRQSGDRRQLPPPPTPANEERRGGLPPLPLHPGGDQGGPPVGPLSLGLATVDIQNPDITSSRYRGLPAPGPSPADKKRSGKKKISKADIGAPSGFKHVSHVGWDPQNGFDVNNLDPDLRSLFSRAGISEAQLTDAETSKLIYDFIEDQGGLEAVRQEMRRQEPLPPPPPPSRGGNQLPRPPIVGGNKGRSGPLPPVPLGIAPPPPTPRGPPPPGRGGPPPPPPPATGRSGPLPPPPPGAGGPPMPPPPPPPPPPPSSGNGPAPPPLPPALVPAGGLAPGGGRGALLDQIRQGIQLNKTPGAPESSALQPPPQSSEGLVGALMHVMQKRSRAIHSSDEGEDQAG	–	binds	–
